Values quoted from earlier work in article PMC5578180.

Test system: His193
Assay: kinetics
Conditions: folded, green (pre-photoconversion) state of LEA under illumination

**Q.** For “Least Evolved Ancestor (LEA), ancestral reconstructed green-to-red photoconvertible GFP-like fluorescent protein (synthetic construct (ancestral gene reconstruction of Faviina coral GFP-like proteins; lineage of the great star coral, printed as Monastrea cavernosa); A60V;Q62H;T69A;D74H;T104R;S105N;Y116N;M154T;V157I;R194C;R216H;del217;L219G)”, which pKa is on record?
**A.** Its pKa is 7.5.
